# Test results reported in the supplement of paper PMC7125110.
# ± gives the standard error. This sample holds only a part of the variants without activity.
# B1: glmS ribozyme (parent)
# chain: AUAAAAGCGCCAGAACUACAGAAAUGUAGUUGACGAGGAGGAGGUUUAUCGAAUUUUCGGCGGAUGCCUCCAAA
# Variants of: B1
# Assay: self-cleavage kobs at 10000 uM GlcN6P; higher = faster cleavage; RNA array
# Details: with glucosamine-6-phosphate
# Summary of the method: (§1)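 Barcoded ribozyme variants on sequenced MiSeq chips were transcribed in situ by E. coli RNA polymerase and followed at 37 °C through a hybridised Cy3 probe. Glucosamine-6-phosphate at 40 μM to 10 mM in HEPES/KCl/Mg(OAc)2 buffer was flowed in, and tiles were imaged over ~14 h. Signals were normalised to baseline and to non-cleaving reference variants, and per-tile medians were fit to one- or two-exponential decays to give kobs. Weighted Michaelis–Menten fits across concentrations gave kcat and KM.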
row,Variant,self-cleavage kobs at 10000 uM GlcN6P [s⁻¹]
1,G7A G35C G41U,< 1e-05
2,G7A A53G,3.18e-05 ± 9.4e-06
3,G7U A14U G38C U57C G60U C67U,< 1e-05
4,G7U A12C U45C,< 1e-05
5,A6C A36U U69A,< 1e-05
6,C8A A14U A39C,< 1e-05
7,C10G A14G,3.42e-05 ± 7.2e-06
8,G7A A33G C50A U69A C70U,9.88e-05 ± 1.8e-05
9,A6U G35A U46G G51U C61A,< 1e-05
10,C10U G43U G60U,< 1e-05
11,C10A A12G G35C U56A U69A,0.000264 ± 7.7e-05
12,A6U G7U C8U G32A G51U,< 1e-05
13,G7U C8A G9U U31C A33U,< 1e-05
14,G9A U45G C68U,< 1e-05
15,C8G A12C A33C,< 1e-05
16,C8G C58U C61U,< 1e-05
17,A6C G32C G41C C58U U65A,< 1e-05
18,C10G U57G C67A,< 1e-05
19,C10U C16U A39C U65C,< 1e-05

row,Variant,self-cleavage kobs at 10000 uM GlcN6P [s⁻¹]
1,G9U A36G G43U U55G C68U,< 1e-05
2,C8A A12G A39G U45A A48C U55C,< 1e-05
3,G9A A36U U45A A64C,< 1e-05
4,C10U C50G A53U U54G U55C C68G,6.48e-05 ± 2e-05
5,A6G G59C G62A,< 1e-05
6,C8A G35C A53U,< 1e-05
7,G7U A42U C67G,< 1e-05
8,C8G G51U U69G,0.00122 ± 0.00049
9,G9U U30C U31C G43A U65A C68U C71A,< 1e-05
10,G7A G35U U57A,< 1e-05
11,G7A U55G C67U C70G,4.07e-05 ± 1.8e-05
12,C10A G59U,7.46e-05 ± 7.9e-06
13,G9U G41U A42G A52U A64U C68U,< 1e-05
14,C8G A15U A39U G51A A52G G60U,< 1e-05
15,G7U A12G G35A A39G U49A C67A,< 1e-05
16,A6G U54A U56A,0.000141 ± 2.8e-05
17,G7A C34U U57A,< 1e-05
18,G7C G32C G41C,< 1e-05

# Variants of: B1
# Assay: self-cleavage kobs at 2500 uM GlcN6P; higher = faster cleavage; RNA array
# Details: with glucosamine-6-phosphate
# Summary of the method: as §1
row,Variant,self-cleavage kobs at 2500 uM GlcN6P [s⁻¹]
1,A64C G66A,4.39e-05 ± 1.4e-05
2,A53U U54C U57C C61G,< 1e-05
3,U54A A64G C70A,0.000536 ± 0.00018
4,U55A C61A C68A,0.00152 ± 0.00071
5,C58A G59C C71U,< 1e-05
